Test results from US20260069679A1.
Like-named read-outs stand apart in the source and are kept apart here.

Assays:
[1] = molecular target: SS[change]; experiment: BLI, 1:1 fit
[2] = molecular target: SS-L2-Aferr; experiment: BLI, 1:1 fit
[3] = molecular target: MERS SS antigen (MERS-CoV EMC/2012) (UniProt K9N5Q8)
[4] = molecular target: MERS SS antigen (MERS-CoV EMC/2012) (UniProt K9N5Q8); remark: listed apart in the source
[5] = molecular target: MERS [change]\u0394RBD antigen (MERS-CoV EMC/2012); experiment: BLI, 1:1 fit
[6] = molecular target: MERS SS antigen (MERS-CoV EMC/2012) (UniProt K9N5Q8); experiment: BLI, 1:1 fit

Substance | Kd [1] | kon [1] | Kd [2] | kon [2] | maximum binding [3] | Kd [4] | Kd [5] | kon [5] | Kd [6] | kon [6]
CC40.8 (antibody) | 1690 pM | 205000 M⁻¹ s⁻¹ | 312 pM | 229000 M⁻¹ s⁻¹ | – | – | – | – | – | –
G4 (antibody) | 2.79 pM | 175000 M⁻¹ s⁻¹ | 2.38 pM | 205000 M⁻¹ s⁻¹ | 0.43 nm | 550 pM | 6.71 pM | 67400 M⁻¹ s⁻¹ | 8.1 pM | 52200 M⁻¹ s⁻¹
